Assay results from patent publication US20180155451A1 (published 2018).

T1: FcγRIIa H (human, UniProt P12318 34-217)
T1 construct: extracellular domain; also called FcγRIIa type H; 2aH
T1 sequence (looked up): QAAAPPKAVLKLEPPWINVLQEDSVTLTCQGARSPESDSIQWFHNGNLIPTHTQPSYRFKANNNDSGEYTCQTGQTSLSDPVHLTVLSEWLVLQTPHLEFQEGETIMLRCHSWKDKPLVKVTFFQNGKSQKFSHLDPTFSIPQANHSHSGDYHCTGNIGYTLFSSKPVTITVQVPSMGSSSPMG

T2: FcγRIIb (human, UniProt P31994 43-217)
T2 construct: extracellular domain; also called 2b
T2 sequence (looked up): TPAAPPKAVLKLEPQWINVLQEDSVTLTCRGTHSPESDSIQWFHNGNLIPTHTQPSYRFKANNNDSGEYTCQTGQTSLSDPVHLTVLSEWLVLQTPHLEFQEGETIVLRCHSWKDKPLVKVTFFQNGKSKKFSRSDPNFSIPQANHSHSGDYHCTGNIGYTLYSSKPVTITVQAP

T3: FcγRIIb (human, UniProt P31994 43-217)
T3 construct: extracellular domain; also called FcgRIIb; 2b
T3 sequence (looked up): T2 sequence (looked up)

B1: GpH7-A5/GpH7-B3 variant P331_20W/GpL16-k0 (antibody, human IgG1, kappa)
heavy 1: not shown
heavy 2: not shown
light: DIVMTQSPLSLPVTPGEPASISCQASESLVHSNRNTYLHWYLQKPGQSPQLLIYKVSNRFSGVPDRFSGSGSGTDFTLKISRVEAEDVGVYYCSQNTHVPPTFGQGTKVEIERTVAAPSVFIFPPSDEQLKSGTASVVCLLNNFYPREAKVQWKVDNALQSGNSQESVTEQDSKDSTYSLSSTLTLSKADYEKHKVYACEVTHQGLSSPVTKSFNRGEC
notes: heterodimerized IgG1, mutation in one H chain only; also called He Ab
B2: GpH7-A5/GpH7-B3 variant P331_16H/GpL16-k0 (antibody, human IgG1, kappa)
heavy 1: not shown
heavy 2: not shown
light: B1 light
notes: as for B1
B3: GpH7-A5/GpH7-B3 variant (E269_01G)/GpL16-k0 (antibody, human IgG1, kappa)
heavy 1: not shown
heavy 2: not shown
light: B1 light
notes: IgG1 heterodimer, mutation in the GpH7-B3 chain only; also called He Ab
B4: GpH7-A5/GpH7-B3 variant (E269_07I)/GpL16-k0 (antibody, human IgG1, kappa)
heavy 1: not shown
heavy 2: not shown
light: B1 light
notes: as for B3
B5: GpH7-A5/GpH7-B3 variant (G237_03V)/GpL16-k0 (antibody, human IgG1, kappa)
heavy 1: not shown
heavy 2: not shown
light: B1 light
notes: as for B3
B6: GpH7-A5/GpH7-B3 variant (L235_12R)/GpL16-k0 (antibody, human IgG1, kappa)
heavy 1: not shown
heavy 2: not shown
light: B1 light
notes: as for B3
B7: GpH7-A5/GpH7-B3 variant (G236_19Q)/GpL16-k0 (antibody, human IgG1, kappa)
heavy 1: not shown
heavy 2: not shown
light: B1 light
notes: as for B3
B8: GpH7-A5/GpH7-B3 variant (E269_14T)/GpL16-k0 (antibody, human IgG1, kappa)
heavy 1: not shown
heavy 2: not shown
light: B1 light
notes: as for B3
B9: GpH7-A5/GpH7-B3 variant (G236_07I)/GpL16-k0 (antibody, human IgG1, kappa)
heavy 1: not shown
heavy 2: not shown
light: B1 light
notes: as for B3
B10: GpH7-A5/GpH7-B3 variant (E269_16H)/GpL16-k0 (antibody, human IgG1, kappa)
heavy 1: not shown
heavy 2: not shown
light: B1 light
notes: as for B3
B11: GpH7-A5/GpH7-B3 variant (E269_18N)/GpL16-k0 (antibody, human IgG1, kappa)
heavy 1: not shown
heavy 2: not shown
light: B1 light
notes: as for B3
B12: GpH7-A5/GpH7-B3 variant (G236_15Y)/GpL16-k0 (antibody, human IgG1, kappa)
heavy 1: not shown
heavy 2: not shown
light: B1 light
notes: as for B3
B13: GpH7-A5/GpH7-B3 variant (G236_04F)/GpL16-k0 (antibody, human IgG1, kappa)
heavy 1: not shown
heavy 2: not shown
light: B1 light
notes: as for B3
B14: GpH7-A5/GpH7-B3 variant (E269_15Y)/GpL16-k0 (antibody, human IgG1, kappa)
heavy 1: not shown
heavy 2: not shown
light: B1 light
notes: as for B3
B15: GpH7-A5/GpH7-B3 variant (E269_04F)/GpL16-k0 (antibody, human IgG1, kappa)
heavy 1: not shown
heavy 2: not shown
light: B1 light
notes: as for B3
B16: GpH7-A5/GpH7-B3 variant (E269_02A)/GpL16-k0 (antibody, human IgG1, kappa)
heavy 1: not shown
heavy 2: not shown
light: B1 light
notes: as for B3
B17: GpH7-A5/GpH7-B3 variant (E269_06M)/GpL16-k0 (antibody, human IgG1, kappa)
heavy 1: not shown
heavy 2: not shown
light: B1 light
notes: as for B3
B18: GpH7-A5/GpH7-B3 variant (E269_08L)/GpL16-k0 (antibody, human IgG1, kappa)
heavy 1: not shown
heavy 2: not shown
light: B1 light
notes: as for B3
B19: GpH7-A5/GpH7-B3 variant (D265_10E)/GpL16-k0 (antibody, human IgG1, kappa)
heavy 1: not shown
heavy 2: not shown
light: B1 light
notes: as for B3
B20: GpH7-A5/GpH7-B3 variant (G236_08L)/GpL16-k0 (antibody, human IgG1, kappa)
heavy 1: not shown
heavy 2: not shown
light: B1 light
notes: as for B3
B21: GpH7-A5/GpH7-B3 variant (G236_14T)/GpL16-k0 (antibody, human IgG1, kappa)
heavy 1: not shown
heavy 2: not shown
light: B1 light
notes: as for B3
B22: GpH7-A5/GpH7-B3 variant (E269_19Q)/GpL16-k0 (antibody, human IgG1, kappa)
heavy 1: not shown
heavy 2: not shown
light: B1 light
notes: as for B3
B23: GpH7-A5/GpH7-B3 variant (H268_07I)/GpL16-k0 (antibody, human IgG1, kappa)
heavy 1: not shown
heavy 2: not shown
light: B1 light
notes: as for B3
B24: GpH7-A5/GpH7-B3 variant (H268_06M)/GpL16-k0 (antibody, human IgG1, kappa)
heavy 1: not shown
heavy 2: not shown
light: B1 light
notes: as for B3
B25: GpH7-A5/GpH7-B3 variant (G237_05P)/GpL16-k0 (antibody, human IgG1, kappa)
heavy 1: not shown
heavy 2: not shown
light: B1 light
notes: as for B3
B26: GpH7-A5/GpH7-B3 variant (E269_03V)/GpL16-k0 (antibody, human IgG1, kappa)
heavy 1: not shown
heavy 2: not shown
light: B1 light
notes: as for B3
B27: GpH7-A5/GpH7-B3 variant (G236_03V)/GpL16-k0 (antibody, human IgG1, kappa)
heavy 1: not shown
heavy 2: not shown
light: B1 light
notes: as for B3
B28: GpH7-A5/GpH7-B3 variant (G236_16H)/GpL16-k0 (antibody, human IgG1, kappa)
heavy 1: not shown
heavy 2: not shown
light: B1 light
notes: as for B3
B29: GpH7-A5/GpH7-B3 variant (G236_02A)/GpL16-k0 (antibody, human IgG1, kappa)
heavy 1: not shown
heavy 2: not shown
light: B1 light
notes: as for B3
B30: GpH7-A5/GpH7-B3 variant (G236_12R)/GpL16-k0 (antibody, human IgG1, kappa)
heavy 1: not shown
heavy 2: not shown
light: B1 light
notes: as for B3
B31: GpH7-A5/GpH7-B3 variant (E269_13S)/GpL16-k0 (antibody, human IgG1, kappa)
heavy 1: not shown
heavy 2: not shown
light: B1 light
notes: as for B3
B32: GpH7-A5/GpH7-B3 variant (H268_04F)/GpL16-k0 (antibody, human IgG1, kappa)
heavy 1: not shown
heavy 2: not shown
light: B1 light
notes: as for B3
B33: GpH7-A5/GpH7-B3 variant (G236_11K)/GpL16-k0 (antibody, human IgG1, kappa)
heavy 1: not shown
heavy 2: not shown
light: B1 light
notes: as for B3
B34: GpH7-A5/GpH7-B3 variant (E269_05P)/GpL16-k0 (antibody, human IgG1, kappa)
heavy 1: not shown
heavy 2: not shown
light: B1 light
notes: as for B3
B35: GpH7-A5/GpH7-B3 variant (G236_05P)/GpL16-k0 (antibody, human IgG1, kappa)
heavy 1: not shown
heavy 2: not shown
light: B1 light
notes: as for B3
B36: GpH7-A5/GpH7-B3 variant (G236_06M)/GpL16-k0 (antibody, human IgG1, kappa)
heavy 1: not shown
heavy 2: not shown
light: B1 light
notes: as for B3
B37: GpH7-A5/GpH7-B3 variant (G236_20W)/GpL16-k0 (antibody, human IgG1, kappa)
heavy 1: not shown
heavy 2: not shown
light: B1 light
notes: IgG1 heterodimer, G236W in the GpH7-B3 chain only; also called GpH7-A5/GpH7-B3-03-20W/GpL16-k0; He Ab
B38: GpH7-A5/GpH7-B3 variant (E269_20W)/GpL16-k0 (antibody, human IgG1, kappa)
heavy 1: not shown
heavy 2: not shown
light: B1 light
notes: as for B3

What follows are binders tested against T1, FcγRIIa H (assay: SPR (Biacore), relative binding vs GpH7-A5/GpH7-B3/GpL16-k0).
Description: (§1) The heterodimerized antibodies He Abs in which one of the H chains was introduced with an alteration were assayed for their binding activities to each activating FcγR and inhibitory FcγR according to the method described in Example 4. […] The activating FcγRs in FIGS. 26, 27, 28, and 29 are FcγRIa, FcγRIIa (R), FcγRIIa (H), and FcγRIIIa, respectively.
(§2) Analysis of interaction between objective antibody and the FcγR was carried out using Biacore T100 (GE Healthcare). HBS-EP+ (GE Healthcare) was used as the running buffer, and the measurement temperature was set to 25° C. Chips produced by immobilizing the antigen peptide by the amine coupling method to a Series S Sencor Chip CM5 (GE Healthcare), or alternatively, chips produced by allowing preliminarily biotinylated antigen peptides to interact with and immobilize onto a Series S Sensor Chip SA (certified) (GE Healthcare) were used. Antibodies of interest were captured onto an antigen peptide-immobilized chip, and allowed to interact to each FcγR diluted with running buffer. To regenerate and repeatedly use the chip, the antibodies captured on the chip were washed off by reacting 10 mM glycine-HCl, pH 1.5.

Binder	He/Con_2aH
B1	82.8 % of control He Ab (=100)
B2	84.5 % of control He Ab (=100)

The binders below were run against T2, FcγRIIb in the same assay as above.
Description: as §1, §2

Binder	He/Con_2b
B1	111 % of control He Ab (=100)
B2	116 % of control He Ab (=100)

What follows are binders tested against T4, FcγRIa (human, UniProt P12314 16-292) (assay: SPR, captured antibody; relative to GpH7-A5/GpH7-B3/GpL16-k0).
T4 construct: extracellular domain; also called FcgRI; 1a
T4 sequence (P12314 16-292): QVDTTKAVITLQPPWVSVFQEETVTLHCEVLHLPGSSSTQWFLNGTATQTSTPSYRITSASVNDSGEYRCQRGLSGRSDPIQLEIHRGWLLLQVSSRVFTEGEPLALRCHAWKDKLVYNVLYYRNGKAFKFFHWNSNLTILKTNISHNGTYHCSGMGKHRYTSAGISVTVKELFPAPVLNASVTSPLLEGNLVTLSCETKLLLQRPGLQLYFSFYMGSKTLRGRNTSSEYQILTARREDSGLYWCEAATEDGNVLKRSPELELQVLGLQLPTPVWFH

Binder	He/Con_1a
B3	104 relative, HeCon Ab = 100
B4	103 relative, HeCon Ab = 100
B5	78.5 relative, HeCon Ab = 100
B6	78 relative, HeCon Ab = 100
B7	92.1 relative, HeCon Ab = 100
B8	106 relative, HeCon Ab = 100
B9	87.5 relative, HeCon Ab = 100
B10	106 relative, HeCon Ab = 100
B11	102 relative, HeCon Ab = 100
B12	92.5 relative, HeCon Ab = 100
B13	96.4 relative, HeCon Ab = 100
B14	106 relative, HeCon Ab = 100
B15	103 relative, HeCon Ab = 100
B16	104 relative, HeCon Ab = 100
B17	104 relative, HeCon Ab = 100
B18	104 relative, HeCon Ab = 100
B19	101 relative, HeCon Ab = 100
B20	79.6 relative, HeCon Ab = 100

Binder	He/Con_1a
B21	92.2 relative, HeCon Ab = 100
B22	105 relative, HeCon Ab = 100
B23	108 relative, HeCon Ab = 100
B24	105 relative, HeCon Ab = 100
B25	44.5 relative, HeCon Ab = 100
B26	103 relative, HeCon Ab = 100
B27	89.9 relative, HeCon Ab = 100
B28	83.5 relative, HeCon Ab = 100
B29	100 relative, HeCon Ab = 100
B30	63.1 relative, HeCon Ab = 100
B31	103 relative, HeCon Ab = 100
B32	106 relative, HeCon Ab = 100
B33	71 relative, HeCon Ab = 100
B34	102 relative, HeCon Ab = 100
B35	77 relative, HeCon Ab = 100
B36	96.7 relative, HeCon Ab = 100
B37	105 relative, HeCon Ab = 100
B38	105 relative, HeCon Ab = 100

Each binder was assayed against T3, FcγRIIb in the same assay as above.

Binder	He/Con_2b
B3	51.5 relative, HeCon Ab = 100
B4	43.9 relative, HeCon Ab = 100
B5	61.4 relative, HeCon Ab = 100
B7	46.6 relative, HeCon Ab = 100
B8	50.6 relative, HeCon Ab = 100
B9	31 relative, HeCon Ab = 100
B10	38.5 relative, HeCon Ab = 100
B11	44.8 relative, HeCon Ab = 100
B12	39.5 relative, HeCon Ab = 100
B13	39.3 relative, HeCon Ab = 100
B14	44.7 relative, HeCon Ab = 100
B15	45 relative, HeCon Ab = 100
B16	49.9 relative, HeCon Ab = 100
B17	46.7 relative, HeCon Ab = 100
B18	42.9 relative, HeCon Ab = 100
B19	38.2 relative, HeCon Ab = 100
B20	26.8 relative, HeCon Ab = 100
B21	57.8 relative, HeCon Ab = 100

Binder	He/Con_2b
B22	44.3 relative, HeCon Ab = 100
B23	88.9 relative, HeCon Ab = 100
B24	65.7 relative, HeCon Ab = 100
B25	24.6 relative, HeCon Ab = 100
B26	45.1 relative, HeCon Ab = 100
B27	35.3 relative, HeCon Ab = 100
B28	27.9 relative, HeCon Ab = 100
B29	96.5 relative, HeCon Ab = 100
B30	6.8 relative, HeCon Ab = 100
B31	47.8 relative, HeCon Ab = 100
B32	89.6 relative, HeCon Ab = 100
B33	49.8 relative, HeCon Ab = 100
B34	52.6 relative, HeCon Ab = 100
B35	19 relative, HeCon Ab = 100
B36	45.5 relative, HeCon Ab = 100
B37	58.2 relative, HeCon Ab = 100
B38	42.5 relative, HeCon Ab = 100
